The target of assay [1] is T1, human 5T4-His protein (human, UniProt Q13641 32-355).
T1 construct: also called recombinant 5T4 protein (human 5T4-his tag); human 5T4 protein; not shown: His tag
T1 sequence (looked up): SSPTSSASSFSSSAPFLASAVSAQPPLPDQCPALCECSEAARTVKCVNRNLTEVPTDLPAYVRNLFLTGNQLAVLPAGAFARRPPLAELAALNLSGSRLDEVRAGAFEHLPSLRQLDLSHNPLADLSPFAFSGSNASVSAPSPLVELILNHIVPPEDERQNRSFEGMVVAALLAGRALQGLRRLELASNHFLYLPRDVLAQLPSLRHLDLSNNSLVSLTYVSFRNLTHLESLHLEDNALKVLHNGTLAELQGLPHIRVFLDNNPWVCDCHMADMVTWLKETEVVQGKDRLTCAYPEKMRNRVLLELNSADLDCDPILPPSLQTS
In words: ELISA, coated antigen.

The target in another assay is T2, cynomolgus 5T4 protein (cynomolgus monkey, UniProt Q4R8Y9 35-355, limits assumed).
T2 construct: Coated protein in ELISA; the screening step names a cyno 5T4-His protein; also called cyno 5T4; recombinant cyno 5T4-His protein
T2 sequence (looked up): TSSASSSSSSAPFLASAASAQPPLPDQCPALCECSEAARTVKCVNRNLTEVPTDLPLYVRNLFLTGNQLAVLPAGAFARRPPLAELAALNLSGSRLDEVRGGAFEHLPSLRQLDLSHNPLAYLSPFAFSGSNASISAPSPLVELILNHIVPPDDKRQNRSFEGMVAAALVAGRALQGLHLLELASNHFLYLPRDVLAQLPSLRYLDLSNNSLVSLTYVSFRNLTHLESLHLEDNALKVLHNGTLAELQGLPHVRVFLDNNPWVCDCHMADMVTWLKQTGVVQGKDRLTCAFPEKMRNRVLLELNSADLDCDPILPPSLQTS
Kind of assay: ELISA, coated antigen. In general terms: In an ELISA, binding on a coated surface is turned into a signal by an enzyme label.

For assay [2], the target named is T1, human 5T4-His protein. Kind of assay: SPR Biacore, Protein A capture. The gist of the method:
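Antibodies captured on a Protein A chip on Biacore T200; serial dilutions of His-tagged human 5T4 injected 2-3 min at 30 μl/min, dissociation 360-1000 s.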
(In general: Surface plasmon resonance follows binding to a sensor surface in real time, without labels.)

In assay [3] the target is T1, human 5T4-His protein. Kind of assay: competitive ELISA, coated human 5T4, vs 267B5-biotin.
The target of assay [4] is T1, human 5T4-His protein. The assay is described as above. This is another data set of the same source.
The target in assay [5] is T1, human 5T4-His protein. In words: competitive ELISA, coated human 5T4, vs 257F1-biotin. As for the experimental part:
Competitive ELISA was carried out to classify the test 5T4 mAbs based on the binding epitope to human 5T4.
Briefly, microtiter plates were coated with human 5T4 proteins at 0.5 μg/ml in PBS, 100 μl/well at 4° C. overnight, then blocked with 150 μl/well of 1% BSA. Serial dilutions of chimeric antibodies as well as 0.2 ug/ml biotin-conjugated reference mAb were added to each well and incubated for 1 hour at RT. The plates were washed with PBS/Tween and then incubate with streptavidin-HRP for 15 mins at RT. After washing, the plates were developed with TMB substrate and analyzed by spectrophotometer at OD 450 nm. According to the competition performance with reference mAbs, the 5T4 mAbs were divided into four bins (Bin A-D), as shown in FIG. 3-8 and Table 4.

For assay [6], the target named is T1, human 5T4-His protein. The assay is described as above. This is another data set of the same source.
Assay [7] has as its target T1, human 5T4-His protein. Described as above. This is another data set of the same source.
Assay [8] addresses T1, human 5T4-His protein. In words: ELISA, coated 5T4-His. As for the experimental part:
To evaluate the binding activity of 159D5 humanized antibodies to human 5T4, the 159D5 chimeric antibody along with 159D5 humanized mAbs were subjected to ELISA test.
Briefly, microtiter plates were coated with human 5T4-His protein at 1 μg/ml in PBS, 100 μl/well at 4° C. overnight, then blocked with 150 μl/well of 10% BSA. Serial dilutions of antibodies were added to each well and incubated for 1 hour at 37° C. The plates were washed with PBS/Tween and then incubated with Goat Anti-Human IgG-HRP for 30 mins at 37° C. After washing, the plates were developed with TMB substrate and analyzed by spectrophotometer at OD 450 nm. As shown in FIG. 14 and Table 12, most of the humanized antibodies bound to human 5T4 with high activity.

The target in assay [9] is T1, human 5T4-His protein. Kind of assay: SPR Biacore, Protein A capture, 50 nM 5T4-His. The protocol:
The binding of the 159D5 humanized antibodies to recombinant 5T4 protein (human 5T4-his tag) was tested with Biacore using a capture method. The mAbs were captured using Protein A chip. 50 nM of human 5T4-his tag protein was injected over captured antibody for 3 mins at a flow rate of 30 μl/min. The antigen was allowed to dissociate for 600 s. All the experiments were carried out on a Biacore T200. Data analysis was carried out using the Biacore T200 evaluation software.

The target in assay [10] is T1, human 5T4-His protein. In words: competitive ELISA, coated human 5T4, vs 159D5-biotin.
The target in assay [11] is T1, human 5T4-His protein. The assay is described as above. This is another data set of the same source.
Assay [12] concerns the target T1, human 5T4-His protein. The assay is described as above. The source holds these as a separate data set.

“And” between values parts separate entries of the source, which are not always exact repeats. Equal entries are not always repeated.

The term EC50 denotes the concentration giving half of the maximal effect. A higher EC50 goes with a less potent agent. As usually defined, the Kd is a measure of binding affinity in units of concentration. The koff is a measure of how fast the partners let go of each other. A lower koff goes with a long-lived complex. The term kon denotes the second-order rate constant of association.

B1: 267B5 chimeric antibody (antibody, V domains shown)
VH: DVQFQESGPGLVKPSQSLSLTCSVTGYSITSSYYWNWIRQFPGDKLEWMGYISYDGSNNYNPSLKNRISITRDTSKKQFFLKLNSVTTEDTATYYCARSWDGGYAMDNWGQGTSVTVSS
VL: SIVMTQTPKFLLVSAGDRVTITCKASQSVSNDVAWYQQKPGQSPKLLIYFASNRYTGVPDRFTGSGYGTVFTFTISTVQADDLAVYFCQQDYTSPWTFGGGTRLEIK
notes: chimeric mAb
In the assay with human 5T4-His protein [1], B1 displayed a 50% effective concentration (EC50) of 0.31 nM. The same molecule displayed a half-maximal effective concentration (EC50) in the assay with cynomolgus 5T4 protein of 0.17 nM. In the assay with human 5T4-His protein [2], this molecule yielded an equilibrium dissociation constant (Kd) of 1.62 nM, an off-rate constant (koff) of 0.000255 s⁻¹ and a kon of 158000 M⁻¹ s⁻¹. Also, the “IC50 (read off the curve)” value with human 5T4-His protein [3] is roughly 10 nM. Also, the “IC50 (read off the curve)” value with human 5T4-His protein [4] was roughly 5 nM.

B2: 257F1 chimeric antibody (antibody, V domains shown)
VH: QVLLQQSGAEVARPGASVKLSCKASGYTFTSYGLNWLRQRTGQGLEWIGEIYPRSENTHYNEKFKGKATLTADKSSSTAYMELRSLTSEDSAVYFCARGDWDFDHWGQGTTLTVSS
VL: EILLTQSPAIIPASPGEKVTITCSASSSVSYMNWYQQKPGSSPKIWIYGISNLASGVPARFSGSGSGTFFSFTINSMEAEDVATYYCQQRSSYPRTFGGGTKLEIK
notes: chimeric mAb
With B2, the concentration giving a half-maximal response (EC50) with human 5T4-His protein [1] was 0.56 nM; in the assay with cynomolgus 5T4 protein, 0.11 nM. The same molecule showed an equilibrium dissociation constant (Kd) in the assay with human 5T4-His protein [2] of 1.48 nM. Moreover, the koff with human 5T4-His protein [2] turned out to be 0.000275 s⁻¹. In the assay with human 5T4-His protein [2], this molecule gave an on-rate (kon) of 186000 M⁻¹ s⁻¹. Moreover, the results for the “IC50 (read off the curve)” value with human 5T4-His protein [5], with human 5T4-His protein [6] and in the assay with human 5T4-His protein [7] were roughly 10 nM, roughly 7 nM and roughly 8 nM, respectively.

B3: 159D5 chimeric antibody (antibody, V domains shown)
VH: DVQLVESGGGLVQPGGSRKLSCTASGFTFSNFGMHWVRQAPETGLEWVAYISSGSSTFYYADSVKGRFTISRDNPKNTLFLQMTSLRSEDTAMYFCARSPAYYRYGLDYWGQGTTLTVSS
VL: DIVLTQSPASLAVSLGQRATISCRASQSVSSSTFSYMHWYQQKPGQPPKLLIKSSSNLESGVPARFSGSGSGTDFTLNIHPVEEEDTATYYCQHSWEIPYTFGGGTKLEIK
notes: chimeric mAb
Take B3: the concentration for a half-maximal effect (EC50) with human 5T4-His protein [1] was 0.24 nM and 0.2 nM and 0.39 nM; with cynomolgus 5T4 protein, 0.18 nM and 0.19 nM and 0.2 nM and 0.11 nM; with human 5T4-His protein [8] it was 0.13 nM. For the same molecule, the dissociation constant Kd in the assay with human 5T4-His protein [2] stood at 0.206 nM; with human 5T4-His protein [9] it was 0.618 nM. In addition, the results for the koff with human 5T4-His protein [2] and in the assay with human 5T4-His protein [9] were 0.00024 s⁻¹ and 0.000204 s⁻¹, respectively. Besides, the kon with human 5T4-His protein [2] was 1.16e+06 M⁻¹ s⁻¹; with human 5T4-His protein [9], 330000 M⁻¹ s⁻¹. Besides, the “IC50 (read off the curve)” value with human 5T4-His protein [10] was roughly 5 nM; in the assay with human 5T4-His protein [11] it was roughly 5 nM; with human 5T4-His protein [12] it was roughly 4 nM.

These data come from patent publication US20250154277A1 (CONCEPT TO MEDICINE BIOTECH, published 2025).
